Experiments:
[1] = molecular target: CD177 (allele 263K431G) on 293 cells (human) (UniProt Q8N6Q3); assay: bead-rosette formation; hIgG coupled to M-450 Epoxy Dynabeads, mixed with 293 cells at 3.5 beads per cell; beads on cells with two or more beads counted from one hundred random cells
[2] = molecular target: CD177 (allele 263K431G) on 293 cells (human) (UniProt Q8N6Q3)
[3] = molecular target: CD177 (allele 263K431R) on 293 cells (human) (UniProt Q8N6Q3)
CD177 (allele 263K431R) on 293 cells (human), sequence (Q8N6Q3 22-408): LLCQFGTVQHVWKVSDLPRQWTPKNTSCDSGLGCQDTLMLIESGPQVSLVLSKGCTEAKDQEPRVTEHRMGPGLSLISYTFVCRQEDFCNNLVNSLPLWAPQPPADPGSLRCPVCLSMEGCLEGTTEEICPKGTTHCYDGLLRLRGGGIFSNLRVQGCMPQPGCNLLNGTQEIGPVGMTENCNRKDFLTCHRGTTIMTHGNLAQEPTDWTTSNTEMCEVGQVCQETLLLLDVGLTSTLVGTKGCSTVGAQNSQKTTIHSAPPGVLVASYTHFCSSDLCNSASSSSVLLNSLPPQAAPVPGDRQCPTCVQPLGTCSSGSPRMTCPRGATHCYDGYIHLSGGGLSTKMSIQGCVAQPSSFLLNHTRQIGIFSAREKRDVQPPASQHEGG

CD177 (allele 263K431G) on 293 cells (human), sequence (Q8N6Q3 22-408): as above

Substance	bound beads per 100 cells (beads per 100 cells) [1]	ADCC (% specific release) of NK-92 cells expressing the CD177-263K431G allele against SKOV-3 cells with trastuzumab 5 μg/ml, E:T 20:1 [2]	ADCC (% specific release) of NK-92 cells expressing the CD177-263K431R allele against SKOV-3 cells with trastuzumab 5 μg/ml, E:T 20:1; failed to mediate ADCC [3]
Human serum IgG (hIgG) (antibody)	123	–	–
Trastuzumab/Herceptin (antibody)	–	8.93%	0.11%
